From article PMC3077247

Target: HECT domain of Nedd4, Y605A (as used for SPR) (UniProt P46934)
Test: SPR

Sequence of HECT domain of Nedd4, Y605A (as used for SPR) (P46934 938-1319 Y1024A): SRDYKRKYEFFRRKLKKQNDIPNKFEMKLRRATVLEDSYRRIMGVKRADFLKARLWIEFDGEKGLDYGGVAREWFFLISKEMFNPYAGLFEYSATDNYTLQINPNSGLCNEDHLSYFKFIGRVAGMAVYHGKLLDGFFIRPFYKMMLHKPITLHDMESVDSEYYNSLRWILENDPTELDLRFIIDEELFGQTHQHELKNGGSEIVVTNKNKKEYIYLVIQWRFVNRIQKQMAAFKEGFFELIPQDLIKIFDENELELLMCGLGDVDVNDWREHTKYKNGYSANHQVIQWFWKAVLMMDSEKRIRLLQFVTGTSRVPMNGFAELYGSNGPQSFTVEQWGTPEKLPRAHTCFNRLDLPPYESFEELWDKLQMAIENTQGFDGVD

- fold decrease in binding against wild-type HECT^Nedd4: 20 fold
Substance: ubiquitin (monomeric) (from UniProt P0CG48 1-76) (natural protein)
